This is an account of results in PMC8509397.

For the assay, the target named is T1, IFNγ cellular receptor (IFNGR1 and IFNGR2) on WISH cells (human (endogenous in WISH cells)) (UniProt P15260).
T1 sequence 1: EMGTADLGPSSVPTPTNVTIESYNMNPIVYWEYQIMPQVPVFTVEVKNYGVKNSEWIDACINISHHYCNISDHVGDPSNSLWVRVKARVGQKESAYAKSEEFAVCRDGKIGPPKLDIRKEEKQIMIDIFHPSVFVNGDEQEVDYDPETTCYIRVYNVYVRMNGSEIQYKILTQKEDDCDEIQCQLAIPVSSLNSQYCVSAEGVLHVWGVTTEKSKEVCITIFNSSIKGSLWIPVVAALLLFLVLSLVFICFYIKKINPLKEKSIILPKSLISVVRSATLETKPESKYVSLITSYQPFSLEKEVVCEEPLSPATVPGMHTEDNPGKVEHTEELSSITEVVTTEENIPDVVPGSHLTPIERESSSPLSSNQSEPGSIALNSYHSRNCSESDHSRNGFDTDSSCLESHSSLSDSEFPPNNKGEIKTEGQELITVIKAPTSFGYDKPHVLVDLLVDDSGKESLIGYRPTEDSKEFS
T1 sequence 2: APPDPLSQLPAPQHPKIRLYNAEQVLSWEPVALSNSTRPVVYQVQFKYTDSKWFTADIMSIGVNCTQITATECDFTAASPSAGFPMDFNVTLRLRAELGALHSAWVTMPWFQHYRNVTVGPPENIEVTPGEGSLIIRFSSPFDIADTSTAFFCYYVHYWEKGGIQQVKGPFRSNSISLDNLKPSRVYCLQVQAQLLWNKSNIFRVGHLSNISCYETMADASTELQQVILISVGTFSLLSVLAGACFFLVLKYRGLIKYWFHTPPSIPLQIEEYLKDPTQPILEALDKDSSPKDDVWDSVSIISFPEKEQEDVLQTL

A value given as a limit tells only on which side of the number the result lay.

On to “recombinant interferon-gamma (IFNγ) (from UniProt P01579 24-161) (ligand)”, for which the antiproliferative activity of IFNγ (IDO induction, modified kynurenine bioassay) on WISH cells, 100 IU/mL IFNγ with LMWH (Fraxiparine): LMWH concentration that reduces the activity to 50% of control came out at 35 IU/mL and the inhibition of IDO induction by 100 IU/mL IFNγ on WISH cells with LMWH (Fraxiparine) 1.5 to 150 anti-Xa IU/mL; highest value at 150 IU/mL was less than 80%.
